The values that follow come from the DeepSol protein solubility set.

The data set is described as follows: soluble on expression in E. coli; label from the status in PepcDB or PDB records.
For the sequence “MGSDKIHHHHHHMHAIGFTDHLPIEDPASLRDVTISKPSAQGHDLLVQVQAVAVNPVDVSVRKTGHEHRMRPKILGWDATGIVTAVGEAVTLFQPGDHVFYAGSFRRPGCDSAYHLVDERLVGHAPATLTTAARAAMPLTSLTAYEALFEQLHIPFDPAKPNSEKCNQTILIINGAGGVGSIATQLAKLAGLTVISSASRPESIAWTQQHGADLVVNHHHDLVSEVHALGIKDVDYILGLSDLDSHWNEICTLIKPGGHIASITENRRPIDLKKLTKKRGTFAWEWMYSKSYYHTADMISQHDILETIADLLDRGLLQSTLSQTLRPINALNLRQAHQLIEQHHMIGKVVIEGWE”, the “soluble on expression in E. coli” value was “not soluble”.
Consider “MEWGVRFYVLSKQEWKQQTIDRCGQFYCLVPSNAGFHVYLFVTMDTGENAVFVFPPHFFIRYRERYWGKHSTLSGKILRKTYLKDNLVMRYGLQPGSEERVTGARIYSASSHGVALGIVLNDEAYLFKTFITYAMTKGEQIPLYMQEKLSMERAQVEYYNTGRLADLVELEERDRKRREMLMAEERRREEKEKRRAAEPGEAYFYVEGPLTLIMPDEEIQEENTGFWQRGTTMFCDSKLIEESQREMRELASVEARIQELKNIPQKAEEKKGVFKRLFGRYF”, for which the “soluble on expression in E. coli” value was “not soluble”.
The entry for “VIGDMNPDFLGSVSTGLTWKNLSFRMALDMRFGGKVAVYGNRYGTAYGWTESSLKFRDEAHGGMTWTSQYLNADGSQSGSYGVTYHDGMIPQGIFASGTQVTGIDGKTHDVSGMSYQQAYENGILEPMHAASYYNYANQWSTGVTNDGWIHDLKYIALREITVGYTFPSNIAGKIGAKRLGVSFSARNLGYLYNSLPNDVNPEGVRGNLSGEFRIRSFDPYTANYTMTINVGF” is “not soluble”.
In the case of “MAHHHHHHMSATPKQPSTATTSISSDEKWDHSLETLIRKSTIGFASGILPGLLLARSPAARSAIIALCTGVGSGIAYGEARYLFDHDIMFDKRHLIQVQVVGGSSSQQSGAQKSME”, the “soluble on expression in E. coli” value is “not soluble”.
The entry for “MGSDKIHHHHHHLIKSIFNKLFNLRENNPIERPKSFSATDLGKPLAISPKNITQQESISANVVYVDLSALFYSLLFPARVNDAGGIANNLERRVMAEIEHALASPQVIAEKVLKLPSKVLELDRKLADPQFDIKALLALIERDPLLSVEVLKLCNSPAFKRSDRDITNLQQALVQLGREQLRKFVTTCLVREMLDIKPIYFRRFGAEIWRHSMQVAFLASELSDEDQDTAFLLGLLHDVGKLAIFKMLLDAFVQAEPGEQPNSGLFRQVMTTKSLTLSSLLAKHWQLPNTFETELDRLASVNSRPQAGLAAVVWRANVISEISMLHQAGQLSPEILANLLQQVNLEQTQFDGLHQKLLQF” is “not soluble”; for “MSLGMHLPGGIVENVRKRPGMYCGDVGEYGLHHLVYFLLDVAYEEARRGECRDVVLEVGGDGSIALFCTSRTVTAENLVRVATGAGFLGRPPGDGWGWDSMLVVSLALSSRYQVDIWADGRQWRVMGEHGHPQGEGAAVTPMEPMPVSAERGVRVHFVPDATIFEVLAFDRARLSRRCNELAALAPGLRVSFADLQRGERTLWHLPGGVAQWAHVLTEARPQLHPEPVVFDFTWDGLRVQCALQWCEDEDSTLLSFANAVRTVRHGAHVKGVTQALRGALAKLSGETRGAFPWARVAQGLTAIVAVSGPRRQMAFAGPTKELLAIPGLEEAIRKQLQPLFIELLREHPVTPALLARRTSGSEGHHHHHH” it is “soluble”.
As to “MLAHIKITHFAIVKSLELDLTKGMTTITGETGAGKSIAIDALGLCLGDRAEASMVRQGEEKAEITVLFTLENNINAKRWLEDNELYDGNDCILRRVITKEGRSRGFINGSPVPAAQLKTLGHLLINIHGQHAHHELMKPEYQLNMLDQYAGHVSLLNKTRSRYQAWRQA”, the “soluble on expression in E. coli” value was “not soluble”.
With “SLSRPWQGKGCATLWASVDHRFQINLRGVIDLLSHHLYSSPDVYIRELLQNATDAIRARQHLEPGHEGSIRIELIEKQDGGPPTLLFSDDGIGLTEEEIHRFLATIGESSKREVLAERRGDFIGQFGIGLLSCFMVCDEVLVVTRSAQGGSPTMEWRGRHDGIYTVRPSGHPLERPGTQVFLVARPDAASLFTPQRVRELALHYGGLLPFPIHLTAGGYSGRINTEG”, the “soluble on expression in E. coli” value is recorded as “soluble”.
